How the values were obtained:
[1] = target: T1, HLA-A*02:01 presenting THBS3 116-125 peptide (…) (human); assay: flow cytometry, peptide-pulsed T2 cells
T1 construct: On peptide-pulsed T2 cells

[2] = target: T2, HLA-A*02:01 presenting LPIN2 823-832 peptide (…) (human); assay: flow cytometry, peptide-pulsed T2 cells
T2 construct: On peptide-pulsed T2 cells

[3] = target: T3, HLA-A*02:01 presenting SCL25A19 111-120 peptide (…) (human); assay: flow cytometry, peptide-pulsed T2 cells
T3 construct: On peptide-pulsed T2 cells

[4] = target: T4, HLA-A*02:01 presenting CELSR3 1594-1603 peptide (…) (human); assay: flow cytometry, peptide-pulsed T2 cells
T4 construct: On peptide-pulsed T2 cells

[5] = target: T5, HLA-A*02:01 presenting PAPPA2 307-316 peptide (…) (human); assay: flow cytometry, peptide-pulsed T2 cells
T5 construct: On peptide-pulsed T2 cells

[6] = target: T6, HLA-A*02:01 presenting FAT4 4053-4062 peptide (…) (human); assay: flow cytometry, peptide-pulsed T2 cells
T6 construct: On peptide-pulsed T2 cells

[7] = target: T7, HLA-A*02:01 presenting MAGE-A10 254-263 peptide (…) (human); assay: flow cytometry, peptide-pulsed T2 cells
T7 construct: On peptide-pulsed T2 cells

[8] = target: T8, HLA-A*02:01 presenting CCDC36 417-426 peptide (…) (human); assay: flow cytometry, peptide-pulsed T2 cells
T8 construct: On peptide-pulsed T2 cells

[9] = target: T9, HLA-A*02:01 presenting MAGE-A4 230-239 peptide (…) (human); assay: flow cytometry, peptide-pulsed T2 cells
T9 construct: On peptide-pulsed T2 cells
Experimental: (§1) Samples were run on an IntelliCyt iQue flow cytometer (Intellicyt) and results were analyzed using Forecyte analysis software (Intellicyt) to calculate the mean fluorescent intensity (MFI) after gating for live cells. MFI values were plotted in Graphpad Prism using a four-parameter logistic equation over a 12-point response curve to calculate EC50 values. The secondary antibody alone (i.e., no primary antibody) for each dose-response curve was also included in the analysis as a continuation of the three-fold serial dilution and was represented as the lowest dose. The signal to noise (S/N) was determined by taking the ratio of the highest MFI on the dose response curve to the MFI in the secondary-alone wells.

[10] = target: T9, HLA-A*02:01 presenting MAGE-A4 230-239 …; assay: flow cytometry, peptide-pulsed T2 cells, 100 nM antibody
Experimental: as §1

[11] = target: T10, HLA-A*02:01 presenting MAGE-A8 232-241 peptide (…) (human); assay: as above
T10 construct: On peptide-pulsed T2 cells
Experimental: as §1

[12] = target: T1, HLA-A*02:01 presenting THBS3 116-125 …; assay: as above
Experimental: as §1

[13] = target: T2, HLA-A*02:01 presenting LPIN2 823-832 …; assay: as above
Experimental: as §1

[14] = target: T3, HLA-A*02:01 presenting SCL25A19 111-120 …; assay: as above
Experimental: as §1

[15] = target: T4, HLA-A*02:01 presenting CELSR3 1594-1603 …; assay: as above
Experimental: as §1

[16] = target: T5, HLA-A*02:01 presenting PAPPA2 307-316 …; assay: as above
Experimental: as §1

[17] = target: T6, HLA-A*02:01 presenting FAT4 4053-4062 …; assay: as above
Experimental: as §1

[18] = target: T7, HLA-A*02:01 presenting MAGE-A10 254-263 …; assay: as above
Experimental: as §1

[19] = target: T8, HLA-A*02:01 presenting CCDC36 417-426 …; assay: as above
Experimental: as §1

binding result [1]: no binding (tested: 100 nM)
binding result [2]: no binding (tested: 100 nM)
binding result [3]: no binding (tested: 100 nM)
binding result [4]: no binding (tested: 100 nM)
binding result [5]: no binding (tested: 100 nM)
binding result [6]: no binding (tested: 100 nM)
binding result [7]: no binding (tested: 100 nM)
binding result [8]: no binding (tested: 100 nM)
EC50 [9]: 4.7 nM
Antibody Binding Ratio (pulsed cell MFI/Unpulsed cell MFI) [10]: 513
Antibody Binding Ratio (pulsed cell MFI/Unpulsed cell MFI) [11]: 870
Antibody Binding Ratio (pulsed cell MFI/Unpulsed cell MFI) [12]: 1
Antibody Binding Ratio (pulsed cell MFI/Unpulsed cell MFI) [13]: 0.9
Antibody Binding Ratio (pulsed cell MFI/Unpulsed cell MFI) [14]: 0.8
Antibody Binding Ratio (pulsed cell MFI/Unpulsed cell MFI) [15]: 0.8
Antibody Binding Ratio (pulsed cell MFI/Unpulsed cell MFI) [16]: 0.9
Antibody Binding Ratio (pulsed cell MFI/Unpulsed cell MFI) [17]: 1
Antibody Binding Ratio (pulsed cell MFI/Unpulsed cell MFI) [18]: 0.9
Antibody Binding Ratio (pulsed cell MFI/Unpulsed cell MFI) [19]: 1
B1: mAbM34852N (antibody, V domains shown)
VH: EVQLLESGGGLVQPGGSLRLTCAASGFTFRSYAMSWVRQAPGKGLEWVSTISGNSDSTYYADSVKGRFTISRENSKNTLYLQMNSLRAEDTAVYYCAKDLHITMVRGAIPADVFDIWGQGTMVTVSS
VL: not shown
notes: Mouse constant region (detected with anti-mouse Fc secondary)
